Laboratory results: US20040175816

Target: T1, OkrAI restriction endonuclease (Oceanospirillum kriegii) (UniProt E2JKI3)
T1 sequence: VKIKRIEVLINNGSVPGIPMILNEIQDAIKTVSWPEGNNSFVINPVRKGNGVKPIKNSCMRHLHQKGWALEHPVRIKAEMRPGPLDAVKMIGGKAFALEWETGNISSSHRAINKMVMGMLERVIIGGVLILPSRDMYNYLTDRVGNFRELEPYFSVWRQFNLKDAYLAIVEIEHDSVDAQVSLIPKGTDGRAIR
Test: cleavage_in_vitro
Settings: approximate yield, assayed in cell extract; isoschizomer of BamHI

lambda phage DNA showed an activity (units per gram wet cells) of 5e+06.
